# According to US9249224B2 (RINAT NEUROSCIENCE CORP., priority 2011, dated 2016):
# Where a name gives a salt, the structure may show the parent alone. Marks after values point to notes of the source that are not given here.
# B1: SS3: humanized GHR antagonist antibody; VL SEQ ID NO: 9, VH SEQ ID NO: 10 (antibody, V domains shown)
# VH: EVQLVESGGGLVKPGGSLRLSCAASGFTFSDAWMDWVRQAPGKGLEWVAEIRSKANNHATYYAESVKGRFTISRDDSKNTLYLQMNSLKTEDTAVYYCTLFRDYWGQGTLVTVSS
# VL: EIVLTQSPGTLSLSPGERATLSCTATSSVSSSYLNWYQQKPGQAPRLLIYSTSNLASGIPDRFSGSGSGTDFTLTISRLEPEDFAVYYCHQYHRFTPTFGGGTKVEIK
# modifications: Humanized and/or affinity matured antibody sequence
# How the values were obtained:
# [1] = tested on: CT26 tumors; assay: CT26 syngeneic mouse model of colorectal cancer, tumor volume and weight; assay type: in vivo; conditions: day 28, BALB/c mice bearing CT26 tumors, Ab11 10 mg/kg, irinotecan 100 mg/kg IP, hydrochloride
# Method: The CT26 cell line was used as a syngeneic mouse model of colorectal cancer. Mice were injected with tumor cells and dosed with the Ab11 antibody alone or in combination with iriniotecan.
# BALB/c mice (BALB/cAnNCrl) were obtained from Charles River (Hollister, Calif., USA) and maintained in the animal facility at Rinat. […] The mice were housed in microisolators (filter top cages) under pathogen-free conditions with a 12-h light/12-h dark schedule and fed autoclaved standard chow and water throughout the experiment.
# Cells were harvested by brief incubation with Accutase (A6964-100ML) (Sigma™ Aldrich, Inc., St. Louis, Mo., USA) and washed in new medium for counting. […]
# Mice were dose intraperitoneally (IP) every second to third day. Tumor volume and body weight were measured at least twice a week. […]
# The tumors were measured every 2-4 days with a digital caliper (mm). Baseline tumor volumes were calculated using the following formula: V=d2^2×(d½) where d1 was the longest diameter of the tumor and d2 was the perpendicular to d1. At the end of the study, while the study was still blinded, outliers were determined and excluded from all four groups. Tumors that were 3× standard error of the mean < mean and 3× standard error of the mean > mean on all days after day 14 (days 18, 22, 25, and 28) were determined outliers. Tumor weight at the end of the study was also measured.
# [2] = tested on: cyno GHR; assay: STAT5 phosphorylation in vitro assay, cyno GHR-transfected HEK293 cells; assay type: cell-based, cynomolgus monkey; conditions: for fluorescent signal ave (phospho-STAT5): Table 8, cyno GHR-transfected cells
# Sequence of cyno GHR (as listed by the source): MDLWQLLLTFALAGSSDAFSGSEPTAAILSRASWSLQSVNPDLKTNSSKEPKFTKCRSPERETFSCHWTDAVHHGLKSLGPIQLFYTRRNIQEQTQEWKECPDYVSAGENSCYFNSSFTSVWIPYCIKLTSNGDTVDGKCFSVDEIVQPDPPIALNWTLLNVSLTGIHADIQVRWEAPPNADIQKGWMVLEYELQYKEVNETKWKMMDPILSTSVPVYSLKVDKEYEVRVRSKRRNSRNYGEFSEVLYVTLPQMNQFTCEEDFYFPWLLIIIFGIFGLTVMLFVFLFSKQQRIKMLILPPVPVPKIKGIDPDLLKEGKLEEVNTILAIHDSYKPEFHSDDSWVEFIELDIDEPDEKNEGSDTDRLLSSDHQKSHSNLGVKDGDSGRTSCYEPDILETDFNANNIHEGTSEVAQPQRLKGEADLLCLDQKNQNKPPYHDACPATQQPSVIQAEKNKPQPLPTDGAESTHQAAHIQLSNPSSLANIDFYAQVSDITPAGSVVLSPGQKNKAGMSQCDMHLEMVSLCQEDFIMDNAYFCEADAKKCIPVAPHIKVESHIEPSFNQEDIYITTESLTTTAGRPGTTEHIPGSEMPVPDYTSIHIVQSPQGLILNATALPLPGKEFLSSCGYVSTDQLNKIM
# Method: This Example illustrates the effect of GHR antibodies in an in vitro STAT5 phosphorylation assay. In this Example, the ability of GHR antibodies to block GHR downstream signaling was tested in vitro using human GHR overexpressing cells and cyno GHR overexpressing cells.
# GHR antagonist antibody Ab13 was tested for its ability to block STAT5 in an in vitro assay. HEK293 cells were transiently transfected with either DNA encoding full-length human GHR (SEQ ID NO: 140) or DNA encoding full-length cyno GHR (SEQ ID NO: 141). Cells were cultured in freestyle media for approximately 60 hours before testing. Cells were washed with DPBS (Dulbecco's Phosphate-Buffered Saline) and resuspended in Freestyle media, then counted using a hemocytometer. 1×10^6 cells were seeded per well in 6-well plates in 2 mls of Freestyle media. Cells were incubated for 2 hours at 37° C., then treated with 5, 50, or 500 nM Ab13 antibody in media. Cells were incubated at 37° C. with gentle mixing for 5 min with antibodies. 4.5 nM GH (Genotropin) was then added to all but control wells. Cells were incubated with GH at 37° C. with gentle mixing for 10 minutes.
# Following incubation with GH, 2 ml of ice cold DPBS with 1× protease inhibitor cocktail (Roche) and 1 mM sodium orthovanadate (BioLabs) were added to each well and the plates were placed on ice. Cells were transferred to 5 ml tubes and spun down to create a cell pellet and the wash buffer was aspirated, leaving the cell pellet.
# Reagents from Millipore™ MILLIPLEX® MAP Cell Signaling Buffer and Detection Kit (cat. #48-602) were used to lyse and treat the cell pellets. Millipore lysis buffer with 1× protease inhibitor cocktail and 1 mM sodium orthovanadate was added to each pellet at a volume of 200 ul/pellet. Cells were vortexed and incubated for 15 minutes at room temp with occasional vortexing. Millipore Assay buffer 2 with 1× protease inhibitor cocktail and 1 mM sodium orthovanadate was then added to the lysates at 300 ul/well.
# Millipore™ MILLIPLEX® MAP Phospho STAT5N8 (Tyr694/699) MAPmate™ beads (Cat. #46-641) were resuspended in Assay Buffer 2 (from Millipore™ kit cat. #48-602) and loaded on a 96-well filter plate (provided in kit) at 25 ul/well, 25 ul/well of sample lysate was added to the wells and the beads and samples were incubated overnight at 4′C with shaking in the dark.
# The liquid was then aspirated using a vacuum manifold and the remaining beads were washed using Millipore™ kit wash buffer. 25 ul Millipore™ kit detection antibody was added and incubated for 1 hour at room temperature with shaking in the dark. The detection antibody was vacuumed through and 25 ul kit streptavidin—Phycoerythrin was added and incubated in the dark for 15 min with shaking. 25 ul kit amplification buffer was then added and incubated for 15 min with shaking in the dark. The liquid was aspirated using a vacuum manifold, and the beads were resuspended in 150 ul kit assay buffer 2 and mixed on a shaker for 5 minutes before reading the plate.
# The plate was read using a Luminex™ 200 instrument and fluorescent signal emitted from the samples was measured, The results of the STAT5 assay are shown in Tables 5 and 6. “Ave” indicates the average fluorescent signal, and “SEM” indicates the standard error of the mean.
# Antibodies SS3 and SS1 (hIgG2Δa) were tested using a STAT5 phosphorylation assay. For the STAT5 assay, full-length human GHR overexpressing HEK293 cells or full-length cyno GHR-overexpressing HEK293 cells were cultured, counted by automated cell counter, and seeded in warm freestyle media in 12-well plates (5×10^5 cells/well in 1 ml media). Cells were allowed to settle for 3 hours at 37° C. then treated with 2.5, 5, 50, or 500 nM of SS1 or SS3 in media. […] Cells were incubated with GH at 37° C. with gentle mixing for 10 minutes.
# Reagents from Millipore™ MILLIPLEX® MAP Cell Signaling Buffer and Detection Kit (cat, #48-602) were used to lyse and treat the cell pellets. […]
# [3] = biological target: T1, human GHR (Homo sapiens, UniProt P10912, I544L); assay: STAT5 phosphorylation in vitro assay, human GHR-transfected HEK293 cells; assay type: cell-based; conditions: for fluorescent signal ave (phospho-STAT5): Table 7, human GHR-transfected cells
# T1 construct: expressed in transfected cells; host or cells: HEK293
# T1 sequence (P10912 19-638 I544L): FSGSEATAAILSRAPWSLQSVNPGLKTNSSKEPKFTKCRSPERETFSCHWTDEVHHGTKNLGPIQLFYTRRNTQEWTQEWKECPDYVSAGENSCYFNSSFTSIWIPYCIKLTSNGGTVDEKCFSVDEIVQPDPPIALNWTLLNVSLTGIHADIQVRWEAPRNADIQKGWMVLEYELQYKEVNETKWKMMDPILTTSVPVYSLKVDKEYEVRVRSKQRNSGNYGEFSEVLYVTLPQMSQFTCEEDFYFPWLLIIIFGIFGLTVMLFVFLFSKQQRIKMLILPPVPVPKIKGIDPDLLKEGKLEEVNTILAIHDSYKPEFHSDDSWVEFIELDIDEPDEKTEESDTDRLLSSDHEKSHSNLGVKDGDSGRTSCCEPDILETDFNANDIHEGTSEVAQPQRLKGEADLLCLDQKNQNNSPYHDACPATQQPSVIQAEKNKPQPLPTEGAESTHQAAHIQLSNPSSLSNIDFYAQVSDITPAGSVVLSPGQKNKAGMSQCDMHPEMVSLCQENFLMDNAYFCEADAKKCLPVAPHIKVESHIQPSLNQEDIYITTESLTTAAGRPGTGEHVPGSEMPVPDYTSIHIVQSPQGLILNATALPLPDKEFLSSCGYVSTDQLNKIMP
# Method: This Example illustrates the effect of GHR antibodies in an in vitro STAT5 phosphorylation assay. In this Example, the ability of GHR antibodies to block GHR downstream signaling was tested in vitro using human GHR overexpressing cells and cyno GHR overexpressing cells. […]
# Antibodies SS3 and SS1 (hIgG2Δa) were tested using a STAT5 phosphorylation assay. For the STAT5 assay, full-length human GHR overexpressing HEK293 cells or full-length cyno GHR-overexpressing HEK293 cells were cultured, counted by automated cell counter, and seeded in warm freestyle media in 12-well plates (5×10^5 cells/well in 1 ml media). Cells were allowed to settle for 3 hours at 37° C. then treated with 2.5, 5, 50, or 500 nM of SS1 or SS3 in media.
# Millipore™ lysis buffer with 1× protease inhibitor cocktail and sodium orthovanadate was added to each pellet at a volume of 100 ul/pellet Cells were vortexed and incubated for 15 minutes at room temp with occasional vortexing, Millipore™ Assay buffer 2 with 1× protease inhibitor cocktail and 1 mM sodium orthovanadate was then added to the lysates at 200 ul/well.
# 25 ul/well of sample lysate was added to the wells and the beads and samples were incubated overnight at 4′C with shaking in the dark. […]
# The plate was read using a Luminex 200 instrument and florescent signal emitted from the samples was measured.
molecule,measurement,setting,value
"CCc1c2c(nc3ccc(OC(=O)N4CCC(N5CCCCC5)CC4)cc13)-c1cc3c(c(=O)n1C2)COC(=O)[C@]3(O)CC [Irinotecan, Irinotecan hydrochloride]","Tumor weight (in grams), mean",[1],1.2** g
same,"Tumor weight (in grams), mean",[1]; listed as irinotecan,1.2 g
"GH: growth hormone, added at 4.5 nM to stimulate STAT5 signaling in GHR-transfected cells [reference compound]",fluorescent signal Ave (phospho-STAT5),"[2]; Table 6, cyno GHR-transfected cells, 4.5 nM GH alone",562
same,fluorescent signal ave (phospho-STAT5),[2]; 4.5 nM GH alone,847
B1,fluorescent signal ave (phospho-STAT5),[3]; 2.5 nM antibody + 4.5 nM GH,100
same,fluorescent signal ave (phospho-STAT5),[3]; 5 nM antibody + 4.5 nM GH,48
same,fluorescent signal ave (phospho-STAT5),[3]; 50 nM antibody + 4.5 nM GH,0
same,fluorescent signal ave (phospho-STAT5),[3]; 500 nM antibody + 4.5 nM GH,0
same,effect on GH-stimulated STAT5 signaling,"[3]; cells expressing human GHR, 4.5 nM GH",blocked STAT5 signaling in a dose-dependent manner
same,fluorescent signal ave (phospho-STAT5),[2]; 2.5 nM antibody + 4.5 nM GH,621
same,fluorescent signal ave (phospho-STAT5),[2]; 5 nM antibody + 4.5 nM GH,518
same,fluorescent signal ave (phospho-STAT5),[2]; 50 nM antibody + 4.5 nM GH,50
same,fluorescent signal ave (phospho-STAT5),[2]; 500 nM antibody + 4.5 nM GH,8
same,effect on GH-stimulated STAT5 signaling,"[2]; cells expressing cyno GHR, 4.5 nM GH",blocked STAT5 signaling in a dose-dependent manner
